This is an account of results in US20250019437A1.

B1: 6E7 antibody affinity modulation variant V34 (antibody, V domains shown)
VH: EVQLVQSGAEVKKPGESLKISCKGSGYSFTSYWIAWVRQMPGKGLEWMGIIYPGDSDTRYSPSFQGQVTISADKSISTAYLQWSSLKASDTAMYFCARQRTFYYDSSDYFDYWGQGTLVTVSS
VL: DIQMTQSPSSVSASVGDRVTITCRASQGISSWLAWYQQKPGKAPKLLIYAASSLQDGVPSRFSGSGSGTDFTLTISSLQPEDFATYFCQQADSFPRTFGQGTKLEIK
B2: 6E7 antibody affinity modulation variant V80 (antibody, V domains shown)
VH: B1 VH with T101N
VL: B1 VL with D56N
B3: 6E7 antibody affinity modulation variant V54 (antibody, V domains shown)
VH: B1 VH with Y32Q
VL: B1 VL with D56N
B4: 6E7 antibody affinity modulation variant V6 (antibody, V domains shown)
VH: B1 VH with Y32M
VL: B1 VL with D56N
B5: 6E7 antibody affinity modulation variant V81 (antibody, V domains shown)
VH: B1 VH
VL: B1 VL with W32L, D56N
B6: 6E7 antibody affinity modulation variant V56 (antibody, V domains shown)
VH: B1 VH with S61Q
VL: B1 VL with D56N
B7: 6E7 antibody affinity modulation variant V69 (antibody, V domains shown)
VH: B1 VH
VL: B1 VL with W32Y, D56N
B8: 6E7 antibody affinity modulation variant V42 (antibody, V domains shown)
VH: B1 VH with Y32A
VL: B1 VL with D56N
B9: 6E7 antibody affinity modulation variant V93 (antibody, V domains shown)
VH: B1 VH
VL: B1 VL with S31G, D56N
B10: 6E7 antibody affinity modulation variant V58 (antibody, V domains shown)
VH: B1 VH
VL: B1 VL with A50K, D56N
B11: 6E7 antibody affinity modulation variant V47 (antibody, V domains shown)
VH: B1 VH
VL: B1 VL with D56N, R96M
B12: 6E7 antibody affinity modulation variant V59 (antibody, V domains shown)
VH: B1 VH
VL: B1 VL with D56N, Q89M
B13: 6E7 antibody affinity modulation variant V45 (antibody, V domains shown)
VH: B1 VH
VL: B1 VL with W32F, D56N
B14: 6E7 antibody affinity modulation variant V46 (antibody, V domains shown)
VH: B1 VH
VL: B1 VL with S53T, D56N
B15: 6E7 antibody affinity modulation variant V78 (antibody, V domains shown)
VH: B1 VH with S28R
VL: B1 VL with D56N
B16: 6E7 antibody affinity modulation variant V91 (antibody, V domains shown)
VH: B1 VH with G54D
VL: B1 VL with D56N
B17: 6E7 antibody affinity modulation variant V83 (antibody, V domains shown)
VH: B1 VH
VL: B1 VL with D56N, D92V
B18: 6E7 antibody affinity modulation variant V35 (antibody, V domains shown)
VH: B1 VH
VL: B1 VL with D56N, D92Y
B19: 6E7 antibody affinity modulation variant V66 (antibody, V domains shown)
VH: B1 VH with Y27T
VL: B1 VL with D56N
B20: 6E7 antibody affinity modulation variant V92 (antibody, V domains shown)
VH: B1 VH with Y103H
VL: B1 VL with D56N
B21: 6E7 antibody affinity modulation variant V79 (antibody, V domains shown)
VH: B1 VH with R59N
VL: B1 VL with D56N
B22: 6E7 antibody affinity modulation variant V67 (antibody, V domains shown)
VH: B1 VH with I50M
VL: B1 VL with D56N
B23: 6E7 antibody affinity modulation variant V68 (antibody, V domains shown)
VH: B1 VH with Y103R
VL: B1 VL with D56N
B24: 6E7 antibody affinity modulation variant V90 (antibody, V domains shown)
VH: B1 VH with Y32E
VL: B1 VL with S31R, D56N
B25: 6E7 antibody affinity modulation variant V71 (antibody, V domains shown)
VH: B1 VH
VL: B1 VL with D56N, F94E
B26: 6E7 antibody affinity modulation variant V43 (antibody, V domains shown)
VH: B1 VH with D57G
VL: B1 VL with D56N
B27: 6E7 antibody affinity modulation variant V94 (antibody, V domains shown)
VH: B1 VH
VL: B1 VL with S52A, D56N
B28: 6E7 antibody affinity modulation variant V70 (antibody, V domains shown)
VH: B1 VH
VL: B1 VL with S52G, D56N
B29: 6E7 antibody affinity modulation variant V57 (antibody, V domains shown)
VH: B1 VH
VL: B1 VL with R24A, D56N
B30: 6E7 antibody affinity modulation variant V44 (antibody, V domains shown)
VH: B1 VH with G54S
VL: B1 VL with D56N
B31: 6E7 antibody affinity modulation variant V55 (antibody, V domains shown)
VH: B1 VH with R59I, F64H
VL: B1 VL with D56N
B32: 6E7 antibody affinity modulation variant V82 (antibody, V domains shown)
VH: B1 VH
VL: B1 VL with A51G, D56N

Where a chain is given by its changes, count along the chain named.

In the first experiment the target is T1, human TREM2 (triggering receptor expressed on myeloid cells 2) (human) (UniProt Q9NZC2).
T1 sequence (looked up): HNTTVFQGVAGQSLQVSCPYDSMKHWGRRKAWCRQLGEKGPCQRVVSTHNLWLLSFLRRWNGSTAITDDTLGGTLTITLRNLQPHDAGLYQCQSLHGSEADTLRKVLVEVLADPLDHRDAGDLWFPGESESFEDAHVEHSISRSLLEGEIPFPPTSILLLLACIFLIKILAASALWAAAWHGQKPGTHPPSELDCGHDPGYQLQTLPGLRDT
The experiment can be described thus: 1st screen, 110 nM Ab.
On to B1, for which the Binding Signal (fold over 6E7 parental antibody) worked out at 0.34 fold.

Turning to B2, the Binding Signal (fold over 6E7 parental antibody) is 0.59 fold.

Turning to B3, the Binding Signal (fold over 6E7 parental antibody) is 0.55 fold.

For the molecule B4, the Binding Signal (fold over 6E7 parental antibody) turned out to be 0.2 fold.

Turning to B5, the Binding Signal (fold over 6E7 parental antibody) is 0.17 fold.

B6: the Binding Signal (fold over 6E7 parental antibody) stood at 0.23 fold.

For B7, the Binding Signal (fold over 6E7 parental antibody) came out at 0.41 fold.

As to B8, the Binding Signal (fold over 6E7 parental antibody) turned out to be 0.45 fold.

Turning to B9, the Binding Signal (fold over 6E7 parental antibody) came to 0.35 fold.

With B10, the Binding Signal (fold over 6E7 parental antibody) worked out at 0.28 fold.

As to B11, the Binding Signal (fold over 6E7 parental antibody) is 0.42 fold.

B12: the Binding Signal (fold over 6E7 parental antibody) turned out to be 0.19 fold.

On to B13, for which the Binding Signal (fold over 6E7 parental antibody) is 0.43 fold.

In the case of B14, the Binding Signal (fold over 6E7 parental antibody) stood at 0.83 fold.

B15: the Binding Signal (fold over 6E7 parental antibody) is 0.86 fold.

For B16, the Binding Signal (fold over 6E7 parental antibody) is 0.25 fold.

Take B17: the Binding Signal (fold over 6E7 parental antibody) is 0.2 fold.

For B18, the Binding Signal (fold over 6E7 parental antibody) came to 0.21 fold.

As for B19, the Binding Signal (fold over 6E7 parental antibody) was 0.25 fold.

Turning to B20, the Binding Signal (fold over 6E7 parental antibody) was 0.22 fold.

Consider B21, for which the Binding Signal (fold over 6E7 parental antibody) stood at 0.7 fold.

Take B22: the Binding Signal (fold over 6E7 parental antibody) came out at 0.8 fold.

For the molecule B23, the Binding Signal (fold over 6E7 parental antibody) was 0.44 fold.

For the molecule B24, the Binding Signal (fold over 6E7 parental antibody) stood at 0.33 fold.

Turning to B25, the Binding Signal (fold over 6E7 parental antibody) came out at 0.37 fold.

On to B26, for which the Binding Signal (fold over 6E7 parental antibody) was 0.2 fold.

In the case of B27, the Binding Signal (fold over 6E7 parental antibody) turned out to be 0.31 fold.

As to B28, the Binding Signal (fold over 6E7 parental antibody) turned out to be 0.79 fold.

In the case of B29, the Binding Signal (fold over 6E7 parental antibody) stood at 0.84 fold.

With B30, the Binding Signal (fold over 6E7 parental antibody) was found to be 0.65 fold.

On to B31, for which the Binding Signal (fold over 6E7 parental antibody) turned out to be 0.24 fold.

On to B32, for which the Binding Signal (fold over 6E7 parental antibody) was found to be 0.3 fold.

The target of a further experiment is T1, human TREM2 (triggering receptor expressed on myeloid cells 2) (human). As to the kind of experiment: 2nd screen, 100 nM Ab.
Take B1: the Binding Signal (fold over 6E7 parental antibody) was found to be 1.02 fold.

For the molecule B2, the Binding Signal (fold over 6E7 parental antibody) amounted to 0.5 fold.

For B3, the Binding Signal (fold over 6E7 parental antibody) came to 0.54 fold.

With B4, the Binding Signal (fold over 6E7 parental antibody) is 0.56 fold.

Take B5: the Binding Signal (fold over 6E7 parental antibody) turned out to be 0.23 fold.

B6: the Binding Signal (fold over 6E7 parental antibody) came to 0.59 fold.

As to B7, the Binding Signal (fold over 6E7 parental antibody) was determined as 0.4 fold.

For B8, the Binding Signal (fold over 6E7 parental antibody) amounted to 0.41 fold.

For the molecule B9, the Binding Signal (fold over 6E7 parental antibody) worked out at 1.05 fold.

For the molecule B10, the Binding Signal (fold over 6E7 parental antibody) was 0.68 fold.

As for B11, the Binding Signal (fold over 6E7 parental antibody) turned out to be 0.47 fold.

For B12, the Binding Signal (fold over 6E7 parental antibody) worked out at 0.6 fold.

With B13, the Binding Signal (fold over 6E7 parental antibody) was found to be 0.53 fold.

For the molecule B14, the Binding Signal (fold over 6E7 parental antibody) was 0.96 fold.

For B15, the Binding Signal (fold over 6E7 parental antibody) is 1.11 fold.

In the case of B16, the Binding Signal (fold over 6E7 parental antibody) turned out to be 0.61 fold.

On to B17, for which the Binding Signal (fold over 6E7 parental antibody) is 0.29 fold.

On to B18, for which the Binding Signal (fold over 6E7 parental antibody) came out at 0.29 fold.

As for B19, the Binding Signal (fold over 6E7 parental antibody) is 0.74 fold.

For B20, the Binding Signal (fold over 6E7 parental antibody) turned out to be 0.65 fold.

Turning to B21, the Binding Signal (fold over 6E7 parental antibody) is 0.52 fold.

In the case of B22, the Binding Signal (fold over 6E7 parental antibody) was 0.84 fold.

Turning to B23, the Binding Signal (fold over 6E7 parental antibody) is 0.43 fold.

On to B24, for which the Binding Signal (fold over 6E7 parental antibody) came out at 0.36 fold.

Regarding B25, the Binding Signal (fold over 6E7 parental antibody) amounted to 0.48 fold.

As to B26, the Binding Signal (fold over 6E7 parental antibody) is 0.33 fold.

For the molecule B27, the Binding Signal (fold over 6E7 parental antibody) worked out at 0.87 fold.

For the molecule B28, the Binding Signal (fold over 6E7 parental antibody) was determined as 0.84 fold.

As for B29, the Binding Signal (fold over 6E7 parental antibody) worked out at 0.85 fold.

With B30, the Binding Signal (fold over 6E7 parental antibody) was found to be 0.52 fold.

Consider B31, for which the Binding Signal (fold over 6E7 parental antibody) is 0.66 fold.

Regarding B32, the Binding Signal (fold over 6E7 parental antibody) stood at 0.79 fold.
